According to patent publication US20190142963A1 (INDIANA UNIVERSITY RESEARCH AND TECHNOLOGY, published 2019):
Non-standard residues stand in square brackets, D forms with d. No end group written: not given here.

T1: human Klotho β (human, UniProt Q86Z14 1-1044)
T1 sequence (looked up): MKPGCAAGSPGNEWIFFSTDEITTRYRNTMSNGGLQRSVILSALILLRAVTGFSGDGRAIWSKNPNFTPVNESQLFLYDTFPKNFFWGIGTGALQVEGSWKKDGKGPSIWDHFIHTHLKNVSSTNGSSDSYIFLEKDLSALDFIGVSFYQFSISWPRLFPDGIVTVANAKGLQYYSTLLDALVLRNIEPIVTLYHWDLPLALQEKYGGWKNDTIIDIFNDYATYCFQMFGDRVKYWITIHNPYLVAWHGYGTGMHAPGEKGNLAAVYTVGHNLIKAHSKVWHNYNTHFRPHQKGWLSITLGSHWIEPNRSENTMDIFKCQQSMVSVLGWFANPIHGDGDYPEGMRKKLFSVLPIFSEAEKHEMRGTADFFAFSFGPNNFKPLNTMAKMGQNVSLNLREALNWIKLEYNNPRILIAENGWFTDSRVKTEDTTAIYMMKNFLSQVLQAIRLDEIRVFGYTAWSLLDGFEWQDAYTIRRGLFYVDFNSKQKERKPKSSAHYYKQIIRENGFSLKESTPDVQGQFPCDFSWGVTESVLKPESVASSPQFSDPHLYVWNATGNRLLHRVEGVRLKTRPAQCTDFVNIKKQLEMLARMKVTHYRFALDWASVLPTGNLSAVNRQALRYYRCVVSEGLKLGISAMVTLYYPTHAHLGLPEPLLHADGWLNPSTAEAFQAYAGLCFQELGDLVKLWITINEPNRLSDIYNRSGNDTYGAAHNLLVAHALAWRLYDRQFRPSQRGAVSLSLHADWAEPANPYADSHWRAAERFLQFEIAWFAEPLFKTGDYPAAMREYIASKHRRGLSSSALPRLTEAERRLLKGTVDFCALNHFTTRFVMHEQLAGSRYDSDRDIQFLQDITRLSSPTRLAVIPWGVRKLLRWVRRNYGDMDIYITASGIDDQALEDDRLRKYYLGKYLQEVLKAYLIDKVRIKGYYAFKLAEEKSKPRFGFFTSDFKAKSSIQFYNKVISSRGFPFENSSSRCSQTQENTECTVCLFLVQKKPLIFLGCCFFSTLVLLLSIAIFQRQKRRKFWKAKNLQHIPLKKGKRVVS


What follows are molecules tested against T1, human Klotho β (assay: cell-based or functional assay).

Molecule	% Activity vs C25 [%]	IC50 of antagonism of FGF21 (assay of Example 1) [nM]
PPDVGSSDPLSMVGPSQGRSPSYA[dS]-NH2 [FGF21 C25 d25]	119	264
PPDVG[dS]SDPLSMVGPSQGRSPSYAS-NH2 [FGF21 C25 d6]	32.5	1980
PPDVGSSDPLSMVG[dP]SQGRSPSYAS-NH2 [FGF21 C25 d15]	66.8	375
PPDVGSSDPLSMVGPS[dQ]GRSPSYAS-NH2 [FGF21 C25 d17]	90.3	262
PPDVGSSDPLSMVGP[dS]QGRSPSYAS-NH2 [FGF21 C25 d16]	46	531

The remaining lines, values ahead:

% Activity vs C25 [%]	IC50 of antagonism of FGF21 (assay of Example 1) [nM]	Molecule
7.61	4720	P[dP]DVGSSDPLSMVGPSQGRSPSYAS-NH2 [FGF21 C25 d2]
15.6	6100	PP[dD]VGSSDPLSMVGPSQGRSPSYAS-NH2 [FGF21 C25 d3]
32.3	1130	PPDVGSSDPLSMVGPSQGRSPSY[dA]S-NH2 [FGF21 C25 d24]
2.3	33700	PPDVGSSDPLSMVGPSQGR[dS]PSYAS-NH2 [FGF21 C25 d20]
3.8	7800	PPDVGSSDPLSMVGPSQGRS[dP]SYAS-NH2 [FGF21 C25 d21]
54.2	877	[dP]PDVGSSDPLSMVGPSQGRSPSYAS-NH2 [FGF21 C25 d1]

Molecular target: T1, human Klotho β
Experiment: cell-based or functional assay
Remark: another data set of the same source

Molecule	IC-50 of antagonism of FGF21 (pErk1/2, 293 HEK hKLB cells) [µM]	IC-50 of antagonistic activity (FIG. 8A) [nM]	% maximal activity, Erk1/2 phosphorylation in 293T HEK hKLB cells (FIG. 9B) [%]	EC-50 of Erk1/2 phosphorylation in 293T HEK hKLB cells (FIG. 9B) [nM]	IC-50 of antagonistic activity (FIG. 8B) [µM]
FGF19 169-194 alanine mutant V187 (from UniProt O95750 191-216) (peptide)	0.69	–	–	–	–
FGF19 169-194 alanine mutant D173 (from UniProt O95750 191-216) (peptide)	0.46	–	–	–	–
FGF19 169-194 alanine mutant P169 (from UniProt O95750 191-216) (peptide)	0.21	–	–	–	–
FGF19 169-194 K194L (from UniProt O95750 191-216) (peptide)	–	17.3	–	–	–
FGF19 K194A (from UniProt O95750 25-216) (ligand)	–	–	31	8.1	–
FGF19 169-194 alanine mutant L170 (from UniProt O95750 191-216) (peptide)	2.17	–	–	–	–
FGF19 169-194 alanine mutant T182 (from UniProt O95750 191-216) (peptide)	0.52	–	–	–	–
FGF19 169-194 (from UniProt O95750 169-194) (peptide)	0.27	–	–	–	0.05
FGF19 169-194 alanine mutant R188 (from UniProt O95750 191-216) (peptide)	0.38	–	–	–	–

Further lines, results first:

IC-50 of antagonism of FGF21 (pErk1/2, 293 HEK hKLB cells) [µM]	IC-50 of antagonistic activity (FIG. 8A) [nM]	% maximal activity, Erk1/2 phosphorylation in 293T HEK hKLB cells (FIG. 9B) [%]	EC-50 of Erk1/2 phosphorylation in 293T HEK hKLB cells (FIG. 9B) [nM]	IC-50 of antagonistic activity (FIG. 8B) [µM]	Molecule
0.2	–	–	–	–	FGF19 169-194 alanine mutant L184 (from UniProt O95750 191-216) (peptide)
2.97	–	–	–	–	FGF19 169-194 alanine mutant F192 (from UniProt O95750 191-216) (peptide)
–	22.3	–	–	–	FGF19 169-194 K194S (from UniProt O95750 191-216) (peptide)
1.4	–	–	–	–	FGF19 169-194 alanine mutant T172 (from UniProt O95750 191-216) (peptide)
> 2	–	–	–	–	FGF19 169-194 alanine mutant S191 (from UniProt O95750 191-216) (peptide)
–	87.9	–	–	–	FGF19 169-194 K194E (from UniProt O95750 191-216) (peptide)
0.15	–	–	–	–	FGF19 169-194 alanine mutant M175 (from UniProt O95750 191-216) (peptide)
3.39	–	–	–	–	FGF19 169-194 alanine mutant S174 (from UniProt O95750 191-216) (peptide)
> 2	–	–	–	–	FGF19 169-194 alanine mutant P190 (from UniProt O95750 191-216) (peptide)
0.85	–	–	–	–	FGF19 169-194 alanine mutant E193 (from UniProt O95750 169-194) (peptide)
1.81	–	–	–	–	FGF19 169-194 alanine mutant V181 (from UniProt O95750 191-216) (peptide)
0.43	–	–	–	–	FGF19 169-194 alanine mutant E185 (from UniProt O95750 191-216) (peptide)
1.93	–	–	–	–	FGF19 169-194 alanine mutant G179 (from UniProt O95750 191-216) (peptide)
> 2	–	–	–	–	FGF19 169-194 alanine mutant S189 (from UniProt O95750 169-194) (peptide)
0.4	–	–	–	–	FGF19 169-194 alanine mutant G183 (from UniProt O95750 191-216) (peptide)
0.12	–	–	–	–	FGF19 169-194 alanine mutant E171 (from UniProt O95750 191-216) (peptide)

Molecular target: T1, human Klotho β
Experiment: cell-based or functional assay
Remark: another data set of the same source

Molecule	% max activity of antagonism of FGF21 (pErk1/2, 293 HEK hKLB cells) [%]	IC-50 of antagonism of FGF21 (pErk1/2, 293 HEK hKLB cells) [nM]
PPDVGSSDPLSMVGPAQGRSPSYAS [FGF21 25mer A16]	101	120
PPDVGSADPLSMVGPSQGRSPSYAS [FGF21 25mer A7]	94.5	359
PPDVGSSDPLAMVGPSQGRSPSYAS [FGF21 25mer A11]	98	102
PPDVGSSDPLSMVGASQGRSPSYAS [FGF21 25mer A15]	93.9	134

Next, values leading:

% max activity of antagonism of FGF21 (pErk1/2, 293 HEK hKLB cells) [%]	IC-50 of antagonism of FGF21 (pErk1/2, 293 HEK hKLB cells) [nM]	Molecule
102	90.1	PPDVASSDPLSMVGPSQGRSPSYAS [FGF21 25mer A5]
99.7	139	PPDVGSSDPLSMVGPSAGRSPSYAS [FGF21 25mer A17]
97.7	136	PPDVGSSDPLSMVAPSQGRSPSYAS [FGF21 25mer A14]

Molecular target: T1, human Klotho β
Experiment: cell-based or functional assay
Remark: another data set of the same source

Molecule	IC-50 of antagonism of FGF21 (pErk1/2, 293 HEK hKLB cells) [µM]
PPDVGSSDPLSMVGPAQGRSPSYAS [FGF21 25mer A16]	0.11
PPDVGSADPLSMVGPSQGRSPSYAS [FGF21 25mer A7]	0.36
PPDVGSSDPLAMVGPSQGRSPSYAS [FGF21 25mer A11]	0.15
PPDVGSSDPLSMVGASQGRSPSYAS [FGF21 25mer A15]	0.12

Second part, the molecule after the results:

IC-50 of antagonism of FGF21 (pErk1/2, 293 HEK hKLB cells) [µM]	Molecule
0.09	PPDVASSDPLSMVGPSQGRSPSYAS [FGF21 25mer A5]
0.13	PPDVGSSDPLSMVGPSAGRSPSYAS [FGF21 25mer A17]
0.13	PPDVGSSDPLSMVAPSQGRSPSYAS [FGF21 25mer A14]
0.005	PLETDSMDPFGLVTGLEAVRSPSFEA [FGF19 169-194 K194A]
